Data from patent US20150344570A1 (published 2015).

T1: FcγRIIa H (human, UniProt P12318 34-217)
T1 construct: extracellular domain; also called FcgRIIa H; 2aH; not shown: His tag at the C terminus
T1 sequence (looked up): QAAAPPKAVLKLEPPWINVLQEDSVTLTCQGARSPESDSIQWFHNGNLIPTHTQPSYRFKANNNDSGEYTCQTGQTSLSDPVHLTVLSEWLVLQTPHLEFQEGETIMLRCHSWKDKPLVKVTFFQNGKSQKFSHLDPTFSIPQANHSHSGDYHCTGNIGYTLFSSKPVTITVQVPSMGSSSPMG

T2: FcγRIIb (human, UniProt P31994 43-217)
T2 construct: extracellular domain; also called FcgRIIb; 2b; not shown: His tag at the C terminus
T2 sequence (looked up): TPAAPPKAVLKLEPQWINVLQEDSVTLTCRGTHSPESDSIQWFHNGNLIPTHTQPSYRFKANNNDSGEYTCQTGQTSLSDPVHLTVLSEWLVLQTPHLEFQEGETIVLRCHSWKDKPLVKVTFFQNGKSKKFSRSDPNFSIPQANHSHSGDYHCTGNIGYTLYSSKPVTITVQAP

T3: FcγRIIa R (extracellular domain, His tag at the C terminus) (human, UniProt P12318 34-217)
T3 construct: extracellular domain; Soluble analyte in Biacore; also called FcgRIIa R type; 2aR
T3 sequence (looked up): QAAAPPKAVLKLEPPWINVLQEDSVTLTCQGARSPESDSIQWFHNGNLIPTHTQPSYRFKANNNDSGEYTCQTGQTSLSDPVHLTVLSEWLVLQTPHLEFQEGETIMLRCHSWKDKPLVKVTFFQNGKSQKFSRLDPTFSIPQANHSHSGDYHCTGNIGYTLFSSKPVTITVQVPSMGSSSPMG


Tests used:
FcγRIIa H [1] = target: T1, FcγRIIa H; test: SPR (Biacore); He/Con_2aH divided by He/Con_2b (FcγRIIa H versus FcγRIIb)
Procedure: (§1) The heterodimerized antibodies He Abs in which one of the H chains was introduced with an alteration were assayed for their binding activities to each activating FcγR and inhibitory FcγR according to the method described in Example 4. […] The activating FcγRs in FIGS. 26, 27, 28, and 29 are FcγRIa, FcγRIIa (R), FcγRIIa (H), and FcγRIIIa, respectively.
(§2) Analysis of interaction between objective antibody and the FcγR was carried out using Biacore T100 (GE Healthcare). HBS-EP+ (GE Healthcare) was used as the running buffer, and the measurement temperature was set to 25° C. Chips produced by immobilizing the antigen peptide by the amine coupling method to a Series S Sencor Chip CM5 (GE Healthcare), or alternatively, chips produced by allowing preliminarily biotinylated antigen peptides to interact with and immobilize onto a Series S Sensor Chip SA (certified) (GE Healthcare) were used. Antibodies of interest were captured onto an antigen peptide-immobilized chip, and allowed to interact to each FcγR diluted with running buffer. To regenerate and repeatedly use the chip, the antibodies captured on the chip were washed off by reacting 10 mM glycine-HCl, pH 1.5.

FcγRIIa H [2] = target: T1, FcγRIIa H; test: SPR (Biacore), FcγR passed over captured antibody; binding amount as % of control GpH7-A5/GpH7-B3/GpL16-k0 (=100)
Procedure: as §1, §2

FcγRIIb = target: T2, FcγRIIb; test: as above
Procedure: as §1, §2

[3] = target: T3, FcγRIIa R (extracellular domain, His …); test: SPR (Biacore), relative binding, control GpH7-B3/GpL16-k0 = 100
Procedure: as §2

| He_2aH/2b (IIaH/IIb) (FcγRIIa H [1]) | He/Con_2aH (FcγRIIa H [2]) | He/Con_2b (FcγRIIb) | Ho/Con_2aR [3] | Binder |
| --- | --- | --- | --- | --- |
| 1.23 ratio | 106 relative, control = 100 | 85.8 relative, control = 100 |  | GpH7-A5/GpH7-B3 variant S324_09D/GpL16-k0 (antibody, human IgG1, kappa, He Ab: mutation in the GpH7-B3 H chain only) heavy 1: not shown heavy 2: not shown light: DIVMTQSPLSLPVTPGEPASISCQASESLVHSNRNTYLHWYLQKPGQSPQLLIYKVSNRFSGVPDRFSGSGSGTDFTLKISRVEAEDVGVYYCSQNTHVPPTFGQGTKVEIERTVAAPSVFIFPPSDEQLKSGTASVVCLLNNFYPREAKVQWKVDNALQSGNSQESVTEQDSKDSTYSLSSTLTLSKADYEKHKVYACEVTHQGLSSPVTKSFNRGEC |
| 1.33 ratio | 103 relative, control = 100 | 77.4 relative, control = 100 |  | GpH7-A5/GpH7-B3 variant S324_10E/GpL16-k0 (antibody, human IgG1, kappa, He Ab: mutation in the GpH7-B3 H chain only) heavy 1: not shown heavy 2: not shown light: DIVMTQSPLSLPVTPGEPASISCQASESLVHSNRNTYLHWYLQKPGQSPQLLIYKVSNRFSGVPDRFSGSGSGTDFTLKISRVEAEDVGVYYCSQNTHVPPTFGQGTKVEIERTVAAPSVFIFPPSDEQLKSGTASVVCLLNNFYPREAKVQWKVDNALQSGNSQESVTEQDSKDSTYSLSSTLTLSKADYEKHKVYACEVTHQGLSSPVTKSFNRGEC |
| 1.34 ratio | 92.2 relative, control = 100 | 68.6 relative, control = 100 |  | GpH7-A5/GpH7-B3 variant S324_11K/GpL16-k0 (antibody, human IgG1, kappa, He Ab: mutation in the GpH7-B3 H chain only) heavy 1: not shown heavy 2: not shown light: DIVMTQSPLSLPVTPGEPASISCQASESLVHSNRNTYLHWYLQKPGQSPQLLIYKVSNRFSGVPDRFSGSGSGTDFTLKISRVEAEDVGVYYCSQNTHVPPTFGQGTKVEIERTVAAPSVFIFPPSDEQLKSGTASVVCLLNNFYPREAKVQWKVDNALQSGNSQESVTEQDSKDSTYSLSSTLTLSKADYEKHKVYACEVTHQGLSSPVTKSFNRGEC |
| 1.53 ratio | 96.5 relative, control = 100 | 63.1 relative, control = 100 |  | GpH7-A5/GpH7-B3 variant S324_12R/GpL16-k0 (antibody, human IgG1, kappa, He Ab: mutation in the GpH7-B3 H chain only) heavy 1: not shown heavy 2: not shown light: DIVMTQSPLSLPVTPGEPASISCQASESLVHSNRNTYLHWYLQKPGQSPQLLIYKVSNRFSGVPDRFSGSGSGTDFTLKISRVEAEDVGVYYCSQNTHVPPTFGQGTKVEIERTVAAPSVFIFPPSDEQLKSGTASVVCLLNNFYPREAKVQWKVDNALQSGNSQESVTEQDSKDSTYSLSSTLTLSKADYEKHKVYACEVTHQGLSSPVTKSFNRGEC |
| 1.22 ratio | 102 relative, control = 100 | 83.5 relative, control = 100 |  | GpH7-A5/GpH7-B3 variant S324_16H/GpL16-k0 (antibody, human IgG1, kappa, He Ab: mutation in the GpH7-B3 H chain only) heavy 1: not shown heavy 2: not shown light: DIVMTQSPLSLPVTPGEPASISCQASESLVHSNRNTYLHWYLQKPGQSPQLLIYKVSNRFSGVPDRFSGSGSGTDFTLKISRVEAEDVGVYYCSQNTHVPPTFGQGTKVEIERTVAAPSVFIFPPSDEQLKSGTASVVCLLNNFYPREAKVQWKVDNALQSGNSQESVTEQDSKDSTYSLSSTLTLSKADYEKHKVYACEVTHQGLSSPVTKSFNRGEC |
| 1.21 ratio | 97.8 relative, control = 100 | 81.1 relative, control = 100 |  | GpH7-A5/GpH7-B3 variant S324_18N/GpL16-k0 (antibody, human IgG1, kappa, He Ab: mutation in the GpH7-B3 H chain only) heavy 1: not shown heavy 2: not shown light: DIVMTQSPLSLPVTPGEPASISCQASESLVHSNRNTYLHWYLQKPGQSPQLLIYKVSNRFSGVPDRFSGSGSGTDFTLKISRVEAEDVGVYYCSQNTHVPPTFGQGTKVEIERTVAAPSVFIFPPSDEQLKSGTASVVCLLNNFYPREAKVQWKVDNALQSGNSQESVTEQDSKDSTYSLSSTLTLSKADYEKHKVYACEVTHQGLSSPVTKSFNRGEC |
| 1.44 ratio | 96 relative, control = 100 | 66.8 relative, control = 100 |  | GpH7-A5/GpH7-B3 variant S324_19Q/GpL16-k0 (antibody, human IgG1, kappa, He Ab: mutation in the GpH7-B3 H chain only) heavy 1: not shown heavy 2: not shown light: DIVMTQSPLSLPVTPGEPASISCQASESLVHSNRNTYLHWYLQKPGQSPQLLIYKVSNRFSGVPDRFSGSGSGTDFTLKISRVEAEDVGVYYCSQNTHVPPTFGQGTKVEIERTVAAPSVFIFPPSDEQLKSGTASVVCLLNNFYPREAKVQWKVDNALQSGNSQESVTEQDSKDSTYSLSSTLTLSKADYEKHKVYACEVTHQGLSSPVTKSFNRGEC |
| 1.34 ratio | 55.4 relative, control = 100 | 41.2 relative, control = 100 |  | GpH7-A5/GpH7-B3 variant Y300_12R/GpL16-k0 (antibody, human IgG1, kappa, He Ab: mutation in the GpH7-B3 H chain only) heavy 1: not shown heavy 2: not shown light: DIVMTQSPLSLPVTPGEPASISCQASESLVHSNRNTYLHWYLQKPGQSPQLLIYKVSNRFSGVPDRFSGSGSGTDFTLKISRVEAEDVGVYYCSQNTHVPPTFGQGTKVEIERTVAAPSVFIFPPSDEQLKSGTASVVCLLNNFYPREAKVQWKVDNALQSGNSQESVTEQDSKDSTYSLSSTLTLSKADYEKHKVYACEVTHQGLSSPVTKSFNRGEC |
| 1.64 ratio | 88.1 relative, control = 100 | 53.9 relative, control = 100 |  | GpH7-A5/GpH7-B3 variant Y300_13S/GpL16-k0 (antibody, human IgG1, kappa, He Ab: mutation in the GpH7-B3 H chain only) heavy 1: not shown heavy 2: not shown light: DIVMTQSPLSLPVTPGEPASISCQASESLVHSNRNTYLHWYLQKPGQSPQLLIYKVSNRFSGVPDRFSGSGSGTDFTLKISRVEAEDVGVYYCSQNTHVPPTFGQGTKVEIERTVAAPSVFIFPPSDEQLKSGTASVVCLLNNFYPREAKVQWKVDNALQSGNSQESVTEQDSKDSTYSLSSTLTLSKADYEKHKVYACEVTHQGLSSPVTKSFNRGEC |
| 1.69 ratio | 94.1 relative, control = 100 | 55.6 relative, control = 100 |  | GpH7-A5/GpH7-B3 variant Y300_14T/GpL16-k0 (antibody, human IgG1, kappa, He Ab: mutation in the GpH7-B3 H chain only) heavy 1: not shown heavy 2: not shown light: DIVMTQSPLSLPVTPGEPASISCQASESLVHSNRNTYLHWYLQKPGQSPQLLIYKVSNRFSGVPDRFSGSGSGTDFTLKISRVEAEDVGVYYCSQNTHVPPTFGQGTKVEIERTVAAPSVFIFPPSDEQLKSGTASVVCLLNNFYPREAKVQWKVDNALQSGNSQESVTEQDSKDSTYSLSSTLTLSKADYEKHKVYACEVTHQGLSSPVTKSFNRGEC |
|  |  |  | 107 % of control | GpH7-B3 variant T335_15Y/GpL16-k0 (antibody, human IgG1, kappa, homodimerized; also called Ho Ab) heavy: not shown light: DIVMTQSPLSLPVTPGEPASISCQASESLVHSNRNTYLHWYLQKPGQSPQLLIYKVSNRFSGVPDRFSGSGSGTDFTLKISRVEAEDVGVYYCSQNTHVPPTFGQGTKVEIERTVAAPSVFIFPPSDEQLKSGTASVVCLLNNFYPREAKVQWKVDNALQSGNSQESVTEQDSKDSTYSLSSTLTLSKADYEKHKVYACEVTHQGLSSPVTKSFNRGEC |
|  |  |  | 107 % of control | GpH7-B3 variant G236_09D/GpL16-k0 (antibody, human IgG1, kappa, homodimerized; also called Ho Ab) heavy: not shown light: DIVMTQSPLSLPVTPGEPASISCQASESLVHSNRNTYLHWYLQKPGQSPQLLIYKVSNRFSGVPDRFSGSGSGTDFTLKISRVEAEDVGVYYCSQNTHVPPTFGQGTKVEIERTVAAPSVFIFPPSDEQLKSGTASVVCLLNNFYPREAKVQWKVDNALQSGNSQESVTEQDSKDSTYSLSSTLTLSKADYEKHKVYACEVTHQGLSSPVTKSFNRGEC |
|  |  |  | 140 % of control | GpH7-B3 variant G236_10E/GpL16-k0 (antibody, human IgG1, kappa, homodimerized; also called Ho Ab) heavy: not shown light: DIVMTQSPLSLPVTPGEPASISCQASESLVHSNRNTYLHWYLQKPGQSPQLLIYKVSNRFSGVPDRFSGSGSGTDFTLKISRVEAEDVGVYYCSQNTHVPPTFGQGTKVEIERTVAAPSVFIFPPSDEQLKSGTASVVCLLNNFYPREAKVQWKVDNALQSGNSQESVTEQDSKDSTYSLSSTLTLSKADYEKHKVYACEVTHQGLSSPVTKSFNRGEC |
|  |  |  | 157 % of control | GpH7-B3 variant H268_09D/GpL16-k0 (antibody, human IgG1, kappa, homodimerized; also called Ho Ab) heavy: not shown light: DIVMTQSPLSLPVTPGEPASISCQASESLVHSNRNTYLHWYLQKPGQSPQLLIYKVSNRFSGVPDRFSGSGSGTDFTLKISRVEAEDVGVYYCSQNTHVPPTFGQGTKVEIERTVAAPSVFIFPPSDEQLKSGTASVVCLLNNFYPREAKVQWKVDNALQSGNSQESVTEQDSKDSTYSLSSTLTLSKADYEKHKVYACEVTHQGLSSPVTKSFNRGEC |
|  |  |  | 154 % of control | GpH7-B3 variant H268_10E/GpL16-k0 (antibody, human IgG1, kappa, homodimerized; also called Ho Ab) heavy: not shown light: DIVMTQSPLSLPVTPGEPASISCQASESLVHSNRNTYLHWYLQKPGQSPQLLIYKVSNRFSGVPDRFSGSGSGTDFTLKISRVEAEDVGVYYCSQNTHVPPTFGQGTKVEIERTVAAPSVFIFPPSDEQLKSGTASVVCLLNNFYPREAKVQWKVDNALQSGNSQESVTEQDSKDSTYSLSSTLTLSKADYEKHKVYACEVTHQGLSSPVTKSFNRGEC |
